Measured values taken from the supplement of paper PMC7125110.
± gives the standard error. This sample holds only a part of the variants without activity.

B1: glmS ribozyme (parent)
chain: AUAAAAGCGCCAGAACUACAGAAAUGUAGUUGACGAGGAGGAGGUUUAUCGAAUUUUCGGCGGAUGCCUCCAAA

Assays:
Details in all cases: with glucosamine-6-phosphate
glucosamine-6-phosphate [1] = variants of: B1; assay: self-cleavage kobs at 640 uM GlcN6P; higher = faster cleavage; RNA array
Method in brief: (§1)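 Sequenced MiSeq chips were the platform: E. coli RNA polymerase transcribed barcoded ribozyme variants on them in situ, and a hybridised Cy3 probe tracked these at 37 °C. After glucosamine-6-phosphate (40 μM to 10 mM) in HEPES/KCl/Mg(OAc)2 buffer was flowed in, tiles were imaged over ~14 h. Signals normalised to baseline and to non-cleaving reference variants were reduced to per-tile medians and fit to one- or two-exponential decays to obtain kobs. kcat and KM were derived through weighted Michaelis–Menten fits across concentrations.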

glucosamine-6-phosphate [2] = variants of: B1; assay: self-cleavage kobs at 2500 uM GlcN6P; higher = faster cleavage; RNA array
Method in brief: as §1

glucosamine-6-phosphate [3] = variants of: B1; assay: self-cleavage kobs at 10000 uM GlcN6P; higher = faster cleavage; RNA array
Method in brief: as §1

Variant	self-cleavage kobs at 640 uM GlcN6P (glucosamine-6-phosphate [1]) [s⁻¹]	self-cleavage kobs at 2500 uM GlcN6P (glucosamine-6-phosphate [2]) [s⁻¹]	self-cleavage kobs at 10000 uM GlcN6P (glucosamine-6-phosphate [3]) [s⁻¹]
A15U C50G C71G	0.000108 ± 2.6e-05	0.000148 ± 5.1e-05	
A15G U56A C61G	< 1e-05		
A33C A48C C71A	< 1e-05	< 1e-05	
A33U C50G G51A	< 1e-05		
U30G G37C G41A A48U A53U C68G C70U	< 1e-05		
C16U A42U C58A G59C G60C	< 1e-05		
A15U A39C A42U	< 1e-05		
C34A A53U C70U	< 1e-05		
A33C U54G C71U	7.35e-05 ± 2.2e-05	0.000178 ± 4.9e-05	
U31A A42U G59U	< 1e-05		
U31A G32A G59U G62A	< 1e-05		
G32A G44U A53C	< 1e-05	< 1e-05	
A33C A52C	< 1e-05	< 1e-05	
G29U A33U U56A A64G	< 1e-05		
U30A A48C C58A G60A	< 1e-05		
G32U A39G C71U	0.000114 ± 3.4e-05	0.00038 ± 0.0001	
A33C A53U G59A U69G	0.000208 ± 8.8e-05		
C34A C61U U65C U69G	< 1e-05		
G29U U45C U55G	3.35e-05 ± 1.5e-05	7.82e-05 ± 1.1e-05	
G29U G37U G51C C68U C71G	4.89e-05 ± 1.7e-05		
G32C A33G A42U U45G U57C A64C C71A	< 1e-05	< 1e-05	
C16G A33U A52U C61U C71U	< 1e-05		
U30A A33C G40A C71U	< 1e-05		

Variant	self-cleavage kobs at 640 uM GlcN6P (glucosamine-6-phosphate [1]) [s⁻¹]	self-cleavage kobs at 2500 uM GlcN6P (glucosamine-6-phosphate [2]) [s⁻¹]	self-cleavage kobs at 10000 uM GlcN6P (glucosamine-6-phosphate [3]) [s⁻¹]
C16U G29U U31A	0.00108 ± 0.00033	0.0037 ± 0.00095	
A15U U31A C34A	< 1e-05	< 1e-05	
U30G A53G C67U	0.000643 ± 0.00013	0.00132 ± 0.00032	
U30C A36C A39U G43A G44U	< 1e-05		
A15G G29A A42C	< 1e-05		
U31G U49G C67A	4.09e-05 ± 1.4e-05		
G32U C50U C61U	< 1e-05	< 1e-05	
C16U C34A G37A C68G	0.000275 ± 0.00012		
U31A U65C	6.63e-05 ± 2.8e-05	0.000132 ± 3.7e-05	0.000395 ± 0.0001
A15G G35A G44U C50G G59C G60C	< 1e-05		
C16U A39U A42C	8.5e-05 ± 2.3e-05	0.000172 ± 3.6e-05	
U31C G43A	< 1e-05	< 1e-05	
A15G C16U C67U	0.000521 ± 0.00014		
C16U A39U A48U	3.71e-05 ± 1.6e-05	7.54e-05 ± 1.5e-05	
U30C G38U U57C A64G	< 1e-05		
G32U G38U	< 1e-05	< 1e-05	
U30G U54A C67G	0.000105 ± 2.2e-05		
A33C G35A U46A	< 1e-05		
G21U U30A	0.00112 ± 0.00029	0.000247 ± 0.00012	0.00354 ± 0.00075
A33C U47G A48C	< 1e-05	< 1e-05	< 1e-05
U30G U45C C71A	3.43e-05 ± 1.1e-05	8.42e-05 ± 2e-05	
G29C U49C C50G G51U U65C	< 1e-05	< 1e-05	
G32C G35A A36U U47G U56G	< 1e-05	< 1e-05	

Variant	self-cleavage kobs at 640 uM GlcN6P (glucosamine-6-phosphate [1]) [s⁻¹]	self-cleavage kobs at 2500 uM GlcN6P (glucosamine-6-phosphate [2]) [s⁻¹]	self-cleavage kobs at 10000 uM GlcN6P (glucosamine-6-phosphate [3]) [s⁻¹]
C16U U46C C50U	< 1e-05		
U30A A36U C70G	0.000179 ± 6.1e-05	0.000108 ± 4.4e-05	3.78e-05 ± 1.7e-05
U30C U31A U45A	0.00111 ± 0.00052	0.000661 ± 0.0003	
C16A C50G G62A A64U	6.11e-05 ± 2.7e-05	9.04e-05 ± 3.5e-05	
U30G G35A A39U U55C	< 1e-05	< 1e-05	
A33U U45G U47A C67A C68G	< 1e-05	< 1e-05	
G32U A52U C58U	< 1e-05	< 1e-05	
G29C G40C C58G	< 1e-05		
U31A A52G U69G	7.54e-05 ± 3.6e-05	7.91e-05 ± 2.3e-05	
A15G G51U G63U C68G	9.97e-05 ± 4.5e-05	0.000286 ± 0.00011	
A28C A33U G59U C61U	< 1e-05		
G32A G35U G38C A39C U49G	< 1e-05	< 1e-05	
A33U C34U A36C U69G	0.000124 ± 6e-05		
A33U A48C G63A	< 1e-05	< 1e-05	
U31C G35C G38U	< 1e-05		
U30A G51C	< 1e-05		< 1e-05
U31C G60U G63C	< 1e-05		
C16U A36G A39C	< 1e-05		
G32C G44C A48C C67G	< 1e-05	< 1e-05	
U30A G38C A39U	< 1e-05		
C16A G63U C67U	0.000112 ± 4.7e-05		
U30G U45A G59C	< 1e-05	< 1e-05	
